# Tests used:
# mCMKLR1 [1] = target: T1, mCMKLR1 (Mus musculus, UniProt P97468); assay: intracellular calcium mobilization, mCMKLR1 L1.2 transfectants; format: cell-based; conditions: Fluo-4
# T1 construct: expressed in transfected cells; host or cells: L1.2 mouse pre-B lymphoma cells
# T1 sequence (P97468 1-371): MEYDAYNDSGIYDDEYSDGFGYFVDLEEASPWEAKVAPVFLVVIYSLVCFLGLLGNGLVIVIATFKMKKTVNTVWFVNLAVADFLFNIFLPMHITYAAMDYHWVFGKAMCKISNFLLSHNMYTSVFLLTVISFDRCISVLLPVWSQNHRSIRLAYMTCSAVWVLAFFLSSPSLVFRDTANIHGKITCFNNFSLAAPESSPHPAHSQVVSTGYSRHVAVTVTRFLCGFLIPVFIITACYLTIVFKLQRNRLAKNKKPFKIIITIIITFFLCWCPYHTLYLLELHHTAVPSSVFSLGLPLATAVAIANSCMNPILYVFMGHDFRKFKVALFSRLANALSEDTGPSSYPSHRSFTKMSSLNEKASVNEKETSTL
# Description: Chemoattractant-stimulated Ca^2+-mobilization was performed following Alliance for Cell Signaling protocol ID PP00000210. Cells (3×10^6/mL) were loaded with 4 μM Fluo4-AM and 0.16% Pluronic acid F-127 (Molecular Probes) in modified Iscove's medium (Iscove's medium with 1% heat inactivated bovine calf serum and 2 mM L-glutamine, Invitrogen) for 30 minutes at 37° C. The samples were mixed every 10 minutes during loading, washed once, resuspended at up to 2×10^6/mL in the same buffer, and allowed to rest in the dark for 30 minutes at room temperature. Chemoattractant-stimulated change in Ca^2+-sensitive fluorescence of Fluo-4 was measured over real-time with a FACsScan flow cytometer and CellQuest software (BD Biosciences) at room temperature under constant stirring (500 rpm). Fluorescent data were acquired continuously up to 1024 seconds at 1-second intervals. The samples were analyzed for 45 seconds to establish basal state, removed from the nozzle to add the stimuli, and then returned to the nozzle. Mean channel fluorescence over time was analyzed with FlowJo (TreeStar, Ashland, Oreg., USA) software. […] 500 μl of these chemerin-loaded cells were added to mCMKLR1/L1.2 cells loaded with Fluo4-AM, and calcium mobilization was evaluated.
# mCMKLR1 [2] = target: T1, mCMKLR1; assay: in vitro transwell chemotaxis, mCMKLR1-HA/L1.2 cells; format: cell-based; conditions: range of doses
# Description: For migration experiments using cell lines, 2.5×10^5 cells/100 μl chemotaxis media (RPMI+10% fetal calf serum) were added to the top wells of 5-um pore transwell inserts (Costar, Corning, N.Y., USA), and test samples in 600 μl media were added to the bottom wells. After incubating the transwell plates for 1.5 hours at 37° C., the bottom wells were harvested and flow cytometry was used to assess migration. For primary cell chemotaxis, 1×10^6 cells/100 μl were added to the top well, and, following a 2 hour incubation at 37° C., polystyrene beads (15.0 μm diameter, Polysciences, Warrington, Pa., USA) were added to each well to facilitate normalization of the cell count. The cells were then stained for c-kit, F4/80, and/or CD11b expression and analyzed by flow cytometry. A ratio was generated and percent input migration was calculated.
# CCRL2 = target: T2, CCRL2 (Mus musculus, UniProt O35457); assay: radiolabeled chemerin binding to TNFα-treated bEND3 cells; conditions: cells treated 24 hours with 20 ng/ml TNFα
# T2 construct: TNFα-treated bEND3 cells acquire CCRL2 surface protein (but not CMKLR1 expression); endogenous in cells; host or cells: bEND3 mouse brain endothelioma cells treated 24 h with 20 ng/ml TNFα
# T2 sequence (O35457 1-360): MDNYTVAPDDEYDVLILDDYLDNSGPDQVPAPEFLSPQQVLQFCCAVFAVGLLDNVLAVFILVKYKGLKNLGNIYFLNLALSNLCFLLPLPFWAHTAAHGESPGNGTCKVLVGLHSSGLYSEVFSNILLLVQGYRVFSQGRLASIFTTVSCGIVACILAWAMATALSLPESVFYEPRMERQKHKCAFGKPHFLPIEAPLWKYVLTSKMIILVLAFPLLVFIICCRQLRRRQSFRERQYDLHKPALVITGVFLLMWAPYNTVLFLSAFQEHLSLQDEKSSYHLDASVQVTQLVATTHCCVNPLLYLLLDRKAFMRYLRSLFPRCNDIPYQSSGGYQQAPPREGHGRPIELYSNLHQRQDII
# Description: FIG. 22. […] Panel A. Robust upregulation of CCRL2 RNA by microarray analysis (Affymetrix®). Panel B. TNFα-treated bEND3 cells acquire CCRL2 surface protein (but not CMKLR1 expression) as determined by mAb staining and flow cytometry. Panel C. […] CCRL2/L1.2 and empty vector pcDNA3/L1.2 transfectants are shown as controls. The mean+/−SD of triplicate wells is shown for an individual experiment. A representative data set of 2 performed with similar results is shown for parts B and C, and n=1 for part A.
# The cells were washed in PBS and stained with secondary anti-rat IgG PE or anti-mouse IgE PE (+goat IgG) for 30 min on ice, washed with PBS, stained with directly conjugated F4/80 and c-kit mAbs, and analyzed by flow cytometry. […] For competition binding assays, L1.2 cells transfected with huCCRL2, mCCRL2, or mCMKLR1 were plated into 96-well plates at 0.5×10^6 cells/well. […]. For saturation binding assays, mCCRL2/L1.2 cells were plated at 0.5×10^6 cells/well. […] Binding was terminated by washing the cells in saline buffer, and bound radioactivity was measured. Data were analyzed using Prism (GraphPad Software). Binding data (triplicate or quadruplicate wells) were fitted to one-site binding hyperbola for saturation assays, or to a one-site competition curve for competition assays. […] […].
substance,measurement,setting,value
"chemerin: protein ligand for signaling receptor CMKLR1; serum form human chemerin expressed in baculovirus-infected insect cells, His8-tag removed",intracellular calcium mobilization,mCMKLR1 [1],robust calcium flux
same,transwell migration,mCMKLR1 [2],"robust, dose dependent migratory response"
same,chemerin binding to TNFα-treated bEND3 cells,CCRL2,bind

# Reference: patent US20100092974A1, “METHODS FOR SCREENING FOR MODULATORS OF CCRL2” (The Board of Trustees of the Leland Stanford Junior …, priority 2008, published 2010)
